Here are results for 4 molecules from patent US20250236670A1 (WISTAR INSTITUTE OF ANATOMY AND BIOLOGY, published 2025).

The target in experiment [1] is T1, human Siglec-7 on cells (HEK293T-Siglec7 cells; human NK cells and other PBMC populations) (human, UniProt Q9Y286 19-467). Description: cell-based or functional assay.
In experiment [2] the target is T2, recombinant human Siglec-7 protein (human, UniProt Q9Y286 19-353, limits assumed).
T2 construct: Used in ELISA, Western blot and SPR
Put plainly: SPR, 'Binding of DB7.2 to Siglec-7' [panel B]. In general terms: Surface plasmon resonance follows binding to a sensor surface in real time, without labels.

Experiment [3] has as its target T2, recombinant human Siglec-7 protein. Description: SPR, titration of anti-Siglec-7 on recombinant human Siglec-7 protein (FIG. 16B).
The target in experiment [4] is T1, human Siglec-7 on cells …. Put plainly: flow cytometry on HEK293T-Siglec-7 cells, GFP against Siglec-7 staining [panel B]. An excerpt:
For the non-conjugated primary antibodies, PE-secondary anti-human (H+L) (Invitrogen) and PE/AF647-secondary anti-human F(ab′)₂ (Jackson ImmunoResearch Laboratories Inc) were used. Live/Dead Violet viability kit (Invitrogen) was used to exclude dead cells from analysis. For Fluorescence cytometry staining on PBMCs, the following antibodies were used: CD69 PE-Cy5 (clone FN50), PD-1 BV421 (clone EH12.2H7), CCR7 APC-Cy7 (G043H7), CD19 BV785 (clone HIB19), CD27 BV650 (clone 0323), CD56 BV570 (clone HCD56), CD16 BV711 (clone 3G8), CD21 PE-Cy7 (clone BU32) and Siglec-7 (clone 6-434) from Biolegend; CD11c BUV395 (clone B-ly6), CXCR5 BV750 (clone RF8B2), CD3 BUV805 (UCHT1), CD45 AF700 (clone HI30), CD127 PE-CF594 (clone HIL-7RM21), CD25 BUV737 (clone 2A3), CD8 BUV496 (clone RPA-T8), HLA-DR BV605 (clone G46-6), CD38 BUV661 (clone HIT2), CD14 BV480 (clone MP9), CD45RA BUV563 (HI100), CD4 BB790 (clone SK3), CD15 FITC (clone HI98), CD103 BB700 (clone Ber-ACT8), CD161 APC (clone DX12) from BD Biosciences. […] Cells were washed with PBS and incubated with 0, 1 or 10 ug/ml of DB7.2 Siglec-7 antibody diluted in fluorescence-activated cell sorting (FACS) buffer for 20 minutes. […]

The target of experiment [5] is T2, recombinant human Siglec-7 protein. Put plainly: ELISA on recombinant human Siglec-7, dilution series (axis 'Dilutions', no concentration unit) [panel A]. In general terms: ELISA stands for enzyme-linked immunosorbent assay.

T2 sequence (Q9Y286 19-353 limits assumed): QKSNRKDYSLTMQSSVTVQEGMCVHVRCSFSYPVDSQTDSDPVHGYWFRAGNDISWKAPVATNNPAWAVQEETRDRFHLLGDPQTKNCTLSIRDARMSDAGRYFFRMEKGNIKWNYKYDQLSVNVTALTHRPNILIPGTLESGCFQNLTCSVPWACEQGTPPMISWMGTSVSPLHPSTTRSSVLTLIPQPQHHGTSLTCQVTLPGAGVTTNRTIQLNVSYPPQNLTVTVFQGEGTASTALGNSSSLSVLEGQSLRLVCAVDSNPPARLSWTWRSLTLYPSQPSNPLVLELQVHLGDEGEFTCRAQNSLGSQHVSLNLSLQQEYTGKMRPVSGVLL
T1 sequence (Q9Y286 19-467): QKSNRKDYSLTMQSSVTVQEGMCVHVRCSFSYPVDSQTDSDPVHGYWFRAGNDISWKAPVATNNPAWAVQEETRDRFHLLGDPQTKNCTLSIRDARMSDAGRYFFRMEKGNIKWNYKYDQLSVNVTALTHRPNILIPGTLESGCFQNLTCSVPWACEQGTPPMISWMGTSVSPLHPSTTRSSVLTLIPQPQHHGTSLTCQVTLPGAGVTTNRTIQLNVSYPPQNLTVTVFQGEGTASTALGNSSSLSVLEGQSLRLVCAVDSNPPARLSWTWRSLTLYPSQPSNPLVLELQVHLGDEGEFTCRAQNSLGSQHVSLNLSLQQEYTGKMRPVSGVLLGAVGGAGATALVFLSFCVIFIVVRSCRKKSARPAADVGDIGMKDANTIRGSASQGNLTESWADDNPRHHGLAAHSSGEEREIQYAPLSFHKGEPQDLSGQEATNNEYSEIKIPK

B1: DB7.2 (DB-S7-2) Siglec-7 MAb (antibody, human IgG1, V domains shown)
VH: QVQLVESGGGVVQPGRSLRLSCAASGFTFRTDAMHWVRQAPGKGLEWVAVIWYDGSIKYHADSVKGRFTISRDNSKNTLYLEMNSLRAEDTAVYYCARDRSNSLDHWGQGILVSVSS
VL: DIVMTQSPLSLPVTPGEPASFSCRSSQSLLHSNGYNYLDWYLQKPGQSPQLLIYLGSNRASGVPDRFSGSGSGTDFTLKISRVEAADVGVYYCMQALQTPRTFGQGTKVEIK
notes: Expressed as human IgG1; The VH is the same as that of DB-S7-1 and DB-S7-7; also called DB7.2 Siglec-7 DMAb; DB7.2 anti-Siglec-7 antibody
As to B1, in experiment [1], the “EC50, killing of PEO4 cells in the presence of human PBMCs (xCELLigence)” value was 68.9 nM and the “IC50, killing of OVISE cells in the presence of human PBMCs (xCELLigence, cell index vs dose at 72 h)” value stood at 82.7 nM. Also, in experiment [2], the koff worked out at 3.6e-05 s⁻¹, the kon came to 830000 M⁻¹ s⁻¹ and the t1/2 was 320 min. Also, the equilibrium dissociation constant (Kd) in experiment [3] was 0.044 nM.

B2: DB7.1 (DB-S7-1) Siglec-7 MAb (antibody, human IgG1, V domains shown)
VH: QVQLVESGGGVVQPGRSLRLSCAASGFTFRTDAMHWVRQAPGKGLEWVAVIWYDGSIKYHADSVKGRFTISRDNSKNTLYLEMNSLRAEDTAVYYCARDRSNSLDHWGQGILVSVSS
VL: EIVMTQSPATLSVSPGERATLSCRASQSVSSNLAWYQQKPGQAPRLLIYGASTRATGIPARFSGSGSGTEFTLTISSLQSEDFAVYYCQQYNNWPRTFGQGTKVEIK
notes: Expressed as human IgG1 (HC + LC plasmids in pVax1, Expi293F cells)
On to B2, for which the binding result in experiment [4] and in experiment [5] was “binds” in each case.

B3: DB7.2_TM Mod (antibody, human IgG1, V domains shown)
VH: QVQLVESGGGVVQPGRSLRLSCAASGFTFRTDAMHWVRQAPGKGLEWVAVIWYDGSIKYHADSVKGRFTISRDNSKNTLYLEMNSLRAEDTAVYYCARDRSNSLDHWGQGILVSVSS
VL: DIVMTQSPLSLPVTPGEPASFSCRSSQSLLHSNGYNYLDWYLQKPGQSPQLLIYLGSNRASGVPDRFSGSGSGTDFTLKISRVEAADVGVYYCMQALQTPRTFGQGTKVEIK
With B3, in experiment [1], the “IC50, killing of OVISE cells in the presence of human PBMCs (xCELLigence, cell index vs dose at 72 h)” value was 192 nM.

B4: DB7.7 (DB-S7-7) Siglec-7 MAb (antibody, human IgG1, V domains shown)
VH: QVQLVESGGGVVQPGRSLRLSCAASGFTFRTDAMHWVRQAPGKGLEWVAVIWYDGSIKYHADSVKGRFTISRDNSKNTLYLEMNSLRAEDTAVYYCARDRSNSLDHWGQGILVSVSS
VL: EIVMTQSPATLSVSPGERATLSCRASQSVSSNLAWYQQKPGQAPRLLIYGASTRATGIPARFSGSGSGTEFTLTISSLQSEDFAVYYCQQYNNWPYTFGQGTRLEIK
notes: Expressed as human IgG1
On to B4, for which the binding result in experiment [4] and in experiment [5] was “binds” throughout.

As a reminder, the koff is the rate constant with which the complex falls apart. By kon is commonly meant a measure of how fast the partners come together. The term Kd denotes the constant that tells how readily two partners part at equilibrium.
